Common to all, as to assay: cell-based or functional assay
In test [1] the target is T1, human GPC3 on tumor cell lines (HepG2, Huh-7, NCI-H661, MKN-45, NCI-H23, BxPC-3, NCI-H292) (human, UniProt P51654 25-554).
Test [2] addresses T1, human GPC3 on tumor cell lines (HepG2, …). This is another data set of the same source.
Test [3] has the same target. This is another data set of the same source.
Test [4] shares this target. This is another data set of the same source.
The target is the same in test [5]. This is another data set of the same source.
Test [6] has the same target. This is another data set of the same source.

Like-named read-outs stand apart in the source and are kept apart here.

This note sets out measurements from patent US20240343823A1 (Ablynx, published 2024).

B1: A022600168 (other)
chain: DVQLVESGGGVVQPGGSLRLSCVASGYVHKINFYGWYRQAPGKEREKVAHISIGDQTDYADSAKGRFTISRDESKNTVYLQMNSLRPEDTAAYYCRALSRIWPYDYWGQGTLVTVSSGGGGSEVQLVESGGGLVQPGGSLRLSCVASGFTFSSFAMTWVRRPPGKGLEWVATITNGGVTSYRDSVKGRFTISRDNAKNTLYLEMTSLNPEDTAVYICANARRTGPRAPTDIGSYRGQGTLVTVSSGGGGSGGGGSGGGGSGGGGSGGGGSGGGGSGGGGSEVQLVESGGGLVQPGGSLRLSCVASGSIFRSVFSSSTMEWYRQPPGKKRELVARIAPGDGTNYGALYADSVKGRFTISRDDAKKTVDLQMNSLKPEDTGVYFCASGVAWGQGTLVTVSSGGGGSGGGGSGGGGSGGGGSGGGGSGGGGSGGGGSEVQLVESGGGVVQPGGSLRLSCAASGFTFRSFGMSWVRQAPGKGPEWVSSISGSGSDTLYADSVKGRFTISRDNSKNTLYLQMNSLRPEDTALYYCTIGGSLSRSSQGTLVTVSSA
On to B1, for which, in test [1], the “IC50 (M), xCELLigence human TDC assay, Hep-G2” value stood at 7.3e-11 M; the “IC50 (M), xCELLigence human TDC assay, Huh-7” value amounted to 2.4e-11 M; the “IC50 (M), xCELLigence human TDC assay, NCI-H661” value came out at 1.4e-10 M. In test [2], the “HepG2 on Incucyte IC50” value came out at 0.367 nM, the “HepG2 on Incucyte Max % killing” value came out at 103%, the “Huh7 on xCELLigence IC50” value came to 0.198 nM and the “Huh7 on xCELLigence Max % killing” value was 107%. Besides, in test [3], the “HepG2 on Incucyte IC50” value turned out to be 0.367 nM, the “HepG2 on Incucyte Max % killing” value turned out to be 103%, the “Huh7 on xCELLigence IC50” value came to 0.198 nM and the “Huh7 on xCELLigence Max % killing” value was 107%. In addition, in test [4], the “HepG2 on Incucyte IC50” value amounted to 0.367 nM, the “HepG2 on Incucyte Max % killing” value was found to be 103%, the “Huh7 on xCELLigence IC50” value is 0.198 nM and the “Huh7 on xCELLigence Max % killing” value came to 107%.

B2: A022600167 (other)
chain: DVQLVESGGGVVQPGGSLRLSCVASGYVHKINFYGWYRQAPGKEREKVAHISIGDQTDYADSAKGRFTISRDESKNTVYLQMNSLRPEDTAAYYCRALSRIWPYDYWGQGTLVTVSSGGGGSEVQLVESGGGLVQPGGSLRLSCVASGFTFSSFAMTWVRRPPGKGLEWVATITNGGVTSYRDSVKGRFTISRDNAKNTLYLEMTSLNPEDTAVYICANARRTGPRAPTDIGSYRGQGTLVTVSSGGGGSGGGGSGGGGSGGGGSGGGGSGGGGSGGGGSEVQLVESGGGVVQPGGSLRLSCAASGFTFRSFGMSWVRQAPGKGPEWVSSISGSGSDTLYADSVKGRFTISRDNSKNTLYLQMNSLRPEDTALYYCTIGGSLSRSSQGTLVTVSSA
With B2, in test [1], the “IC50 (M), xCELLigence human TDC assay, Hep-G2” value was found to be 9.2e-11 M; the “IC50 (M), xCELLigence human TDC assay, Huh-7” value is 4.7e-10 M; the “IC50 (M), xCELLigence human TDC assay, NCI-H661” value came out at 1.8e-10 M. In test [2], the “HepG2 on Incucyte IC50” value stood at 1.92 nM, the “HepG2 on Incucyte Max % killing” value was determined as 98%, the “Huh7 on xCELLigence IC50” value was determined as 8.61 nM and the “Huh7 on xCELLigence Max % killing” value is 91%. Also, in test [3], the “HepG2 on Incucyte IC50” value was 1.92 nM, the “HepG2 on Incucyte Max % killing” value is 98%, the “Huh7 on xCELLigence IC50” value came to 8.61 nM and the “Huh7 on xCELLigence Max % killing” value was found to be 91%. In addition, in test [4], the “HepG2 on Incucyte IC50” value was found to be 1.92 nM, the “HepG2 on Incucyte Max % killing” value stood at 98%, the “Huh7 on xCELLigence IC50” value is 8.61 nM and the “Huh7 on xCELLigence Max % killing” value amounted to 91%.

B3: A022600103 (other)
chain: DVQLVESGGGVVQPGGSLRLSCVASGYVHKINFYGWYRQAPGKEREKVAHISIGDQTDYADSAKGRFTISRDESKNTVYLQMNSLRPEDTALYYCRALSRIWPYDYWGQGTLVTVSSGGGGSEVQLVESGGGLVQPGGSLRLSCVASGFTFSSFAMTWVRRPPGKGLEWVATITNGGVTSYRDSVKGRFTISRDNAKNTLYLEMTSLNPEDTAVYICANARRTGPRAPTDIGSYRGQGTLVTVSSGGGGSGGGGSGGGGSGGGGSGGGGSGGGGSGGGGSEVQLVESGGGVVQPGGSLRLSCAASGFTFRSFGMSWVRQAPGKGPEWVSSISGSGSDTLYADSVKGRFTISRDNSKNTLYLQMNSLRPEDTALYYCTIGGSLSRSSQGTLVTVSSA
For B3, in test [5], the “IC50 (M), Incucyte human TDC HepG2-Nuclight green assay” value was 5.43e-10 M and the “Max % Killing, Incucyte human TDC HepG2-Nuclight green assay” value came to 90%. Further, in test [6], the “IC50 (M), Incucyte human TDC HepG2-Nuclight green assay” value came to 2.04e-09 M and the “Max % Killing, Incucyte human TDC HepG2-Nuclight green assay” value came to 92%. Besides, in test [3], the “HepG2 on Incucyte IC50” value was determined as 1.23 nM, the “HepG2 on Incucyte Max % killing” value was found to be 96%, the “Huh7 on xCELLigence IC50” value is 7.11 nM and the “Huh7 on xCELLigence Max % killing” value worked out at 71%.

B4: A022600105 (other)
chain: DVQLVESGGGVVQPGGSLRLSCVASGYVHKINFYGWYRQAPGKEREKVAHISIGDQTDYADSAKGRFTISRDESKNTVYLQMNSLRPEDTALYYCRALSRIWPYDYWGQGTLVTVSSGGGGSGGGGSGGGGSGGGGSEVQLVESGGGLVQPGGSLRLSCVASGFTFSSFAMTWVRRPPGKGLEWVATITNGGVTSYRDSVKGRFTISRDNAKNTLYLEMTSLNPEDTAVYICANARRTGPRAPTDIGSYRGQGTLVTVSSGGGGSGGGGSGGGGSGGGGSGGGGSGGGGSGGGGSEVQLVESGGGVVQPGGSLRLSCAASGFTFRSFGMSWVRQAPGKGPEWVSSISGSGSDTLYADSVKGRFTISRDNSKNTLYLQMNSLRPEDTALYYCTIGGSLSRSSQGTLVTVSSA
As for B4, in test [6], the “IC50 (M), Incucyte human TDC HepG2-Nuclight green assay” value is 2.14e-09 M and the “Max % Killing, Incucyte human TDC HepG2-Nuclight green assay” value amounted to 85%.

B5: A022600096 (other)
chain: DVQLVESGGGLVQPGGSLRLSCVASGYVHKINFYGWYRQAPGKEREKVAHISIGDQTDYADSAKGRFTISRDESKNTVYLQMNSLRPEDTALYYCRALSRIWPYDYWGQGTLVTVSSGGGGSGGGGSGGGGSGGGGSGGGGSGGGGSGGGGSEVQLVESGGGLVQPGGSLRLSCVASGFTFSSFAMTWVRRPPGKGLEWVATITNGGVTSYRDSVKGRFTISRDNAKNTLYLEMTSLNPEDTAVYICANARRTGPRAPTDIGSYRGQGTLVTVSSGGGGSGGGGSGGGGSGGGGSGGGGSGGGGSGGGGSEVQLVESGGGVVQPGGSLRLSCAASGFTFRSFGMSWVRQAPGKGPEWVSSISGSGSDTLYADSVKGRFTISRDNSKNTLYLQMNSLRPEDTALYYCTIGGSLSRSSQGTLVTVSSA
B5: in test [6], the “IC50 (M), Incucyte human TDC HepG2-Nuclight green assay” value worked out at 1.4e-09 M and the “Max % Killing, Incucyte human TDC HepG2-Nuclight green assay” value is 72%.

B6: A022600102 (other)
chain: DVQLVESGGGVVQPGGSLRLSCVASGYVHKINFYGWYRQAPGKEREKVAHISIGDQTDYADSAKGRFTISRDESKNTVYLQMNSLRPEDTALYYCRALSRIWPYDYWGQGTLVTVSSAAAEVQLVESGGGLVQPGGSLRLSCVASGFTFSSFAMTWVRRPPGKGLEWVATITNGGVTSYRDSVKGRFTISRDNAKNTLYLEMTSLNPEDTAVYICANARRTGPRAPTDIGSYRGQGTLVTVSSGGGGSGGGGSGGGGSGGGGSGGGGSGGGGSGGGGSEVQLVESGGGVVQPGGSLRLSCAASGFTFRSFGMSWVRQAPGKGPEWVSSISGSGSDTLYADSVKGRFTISRDNSKNTLYLQMNSLRPEDTALYYCTIGGSLSRSSQGTLVTVSSA
With B6, in test [6], the “IC50 (M), Incucyte human TDC HepG2-Nuclight green assay” value was 1.72e-09 M and the “Max % Killing, Incucyte human TDC HepG2-Nuclight green assay” value is 94%.

B7: A022600132 (other)
chain: DVQLVESGGGVVQPGGSLRLSCVASGYVHKINFYGWYRQAPGKEREKVAHISIGDQTDYADSAKGRFTISRDESKNTVYLQMNSLRPEDTALYYCRALSRIWPYDYWGQGTLVTVSSGGGGSEVQLVESGGGLVQPGGSLRLSCVASGFTFSSFAMTWVRRPPGKGLEWVATITNGGVTSYRDSVKGRFTISRDNAKNTLYLEMTSLNPEDTAVYICANARRTGPRAPTDIGSYRGQGTLVTVSSGGGGSGGGSEVQLVESGGGLVQPGGSLRLSCVASGSIFRSVFSSSTMEWYRQPPGKKRELVARIAPGDGTNYGALYADSVKGRFTISRDDAKKTVDLQMNSLKPEDTGVYFCASGVAWGQGTLVTVSSGGGGSGGGGSGGGGSGGGGSGGGGSGGGGSGGGGSEVQLVESGGGVVQPGGSLRLSCAASGFTFRSFGMSWVRQAPGKGPEWVSSISGSGSDTLYADSVKGRFTISRDNSKNTLYLQMNSLRPEDTALYYCTIGGSLSRSSQGTLVTVSSA
As for B7, in test [5], the “IC50 (M), Incucyte human TDC HepG2-Nuclight green assay” value stood at 7.02e-10 M and the “Max % Killing, Incucyte human TDC HepG2-Nuclight green assay” value amounted to 91%. Besides, in test [3], the “HepG2 on Incucyte IC50” value is 0.683 nM, the “HepG2 on Incucyte Max % killing” value came out at 83%, the “Huh7 on xCELLigence IC50” value is 0.29 nM and the “Huh7 on xCELLigence Max % killing” value stood at 95%.

B8: A022600104 (other)
chain: DVQLVESGGGVVQPGGSLRLSCVASGYVHKINFYGWYRQAPGKEREKVAHISIGDQTDYADSAKGRFTISRDESKNTVYLQMNSLRPEDTALYYCRALSRIWPYDYWGQGTLVTVSSGGGGSGGGSEVQLVESGGGLVQPGGSLRLSCVASGFTFSSFAMTWVRRPPGKGLEWVATITNGGVTSYRDSVKGRFTISRDNAKNTLYLEMTSLNPEDTAVYICANARRTGPRAPTDIGSYRGQGTLVTVSSGGGGSGGGGSGGGGSGGGGSGGGGSGGGGSGGGGSEVQLVESGGGVVQPGGSLRLSCAASGFTFRSFGMSWVRQAPGKGPEWVSSISGSGSDTLYADSVKGRFTISRDNSKNTLYLQMNSLRPEDTALYYCTIGGSLSRSSQGTLVTVSSA
Consider B8, for which, in test [6], the “IC50 (M), Incucyte human TDC HepG2-Nuclight green assay” value amounted to 2.13e-09 M and the “Max % Killing, Incucyte human TDC HepG2-Nuclight green assay” value was 90%.
